Measured values: US12691186B2, “B7-H3 miniproteins, conjugates, and uses thereof” (priority 2023, dated 2026)

Tests used:
[1] = In vitro metabolic stability, kidney brush border membrane preparations (KBBM); format: in vitro ADME; set-up: unit not given here; settings: mouse kidney brush border membrane preparation, 37° C.
Experimental: (§1) Exemplary miniprotein conjugates were spiked into biological matrices at initial concentration between 1-2 μM. Tested matrices were varied by species (mouse, rat, human) and type (plasma, serum, and kidney brush border membrane preparations tested each from 0.625-100 μg/mL protein content). Tested conditions were incubated with TAs at 37° C. for 4 hours. At collection points of 0, 15, 30, 60, 120, 240 minutes, 50 μL of each condition were quenched by organic solvent (methanol or acetonitrile) or the addition of 4% phosphoric acid solution. Fractions of each quenched timepoint were subsequently assayed for parent TA concentration by high resolution LC-MS. Percent-parent-remaining-time plots were constructed from the ratio of each given time collection to the time-zero parent TA. Percent-parent-remaining in mouse serum and plasma for exemplary miniproteins are recorded in Table 8.

[2] = In vitro metabolic stability, plasma; format: in vitro ADME; set-up: unit not given here; settings: 37° C.
Experimental: as §1

Substance	In vitro Stability (mouse) - KBBM [1]	In vitro Stability (mouse) - Plasma [2]
C303 (CAREKIAALSEIIWLPCLTYAQIXAFIAALNDDPCQSANILSEAXELCS; DOTA-PEG4 N-term, methyllysines, C-amide; SITE 24 monomethyllysine; SITE 45 monomethyllysine) [Compound C303]	>12	>12
C305 (CAXEKIAALSEIIWLPCLTYAQIXAFIAALNDDPCQSSEILSEAXELCS; DOTA-PEG4 N-term, methylated lysines, C-amide; SITE 3 trimethyllysine; SITE 24 monomethyllysine; SITE 45 monomethyllysine) [Compound C305]	>12	>12
C307 (CAXEKIAALSEIIWLPCLTYAQIXAFIXALNDDPCQSSEILSEAXELCS; DOTA-PEG4 N-term, methylated lysines, C-amide; SITE 3 trimethyllysine; SITE 24 monomethyllysine; SITE 28 monomethyllysine; SITE 45 monomethyllysine) [Compound C307]	>12	>12
C311 (CAXEKIAALSEIIWLPCLNYAQIXAFIAALNDDPCQSSEILSEAXELCS; DOTA-PEG4 N-term, methylated lysines, C-amide; SITE 3 trimethyllysine; SITE 24 monomethyllysine; SITE 45 monomethyllysine) [Compound C311]	>12	>12
C313 (CAXEKIAALSEIIWLPCLTYAQIXAFIAALNDDPCNSSEILSEAXELCS; DOTA-PEG4 N-term, methylated lysines, C-amide; SITE 3 trimethyllysine; SITE 24 monomethyllysine; SITE 45 monomethyllysine) [Compound C313]	>12	>12
C317 (CAXEKIAALSEIIWLPCLTYAQIXAFIARLNDDPCQSAEILSEAXELCS; DOTA-PEG4 N-term, methylarginine, methyllysines, C-amide; SITE 3 Rme; SITE 24 monomethyllysine; SITE 45 monomethyllysine) [Compound C317]		>12
C319 (CAXEKIAALSEIIWLPCLTYAQIXAFIAXLNXDPCQSSEILSEAXELCS; DOTA-PEG4 N-term, methyllysines, citrulline, C-amide; SITE 3 trimethyllysine; SITE 24 dimethyllysine; SITE 29 monomethyllysine; SITE 32 citrulline; SITE 45 monomethyllysine) [Compound C319]	>12	>12
C349 (CAREKIAALSEIIWLPCLTYAQIXAFIAALNDDPCQSAEILSEAQELCS; DOTA-PEG4, methyl-Lys, C-terminal amide; SITE 24 monomethyllysine) [Compound C349]	>12	>12
C354 (CAREKIAALSEIIWLPCLTYAQIXAFIAALNDDPCQSSEILSEAXELCS; not fully specified; DOTA-PEG4, methyl-Lys, C-terminal amide; SITE 24 monomethyllysine; SITE 45 monomethyllysine) [Compound C354]	>12	>12
C467 (CAREKINALGEIIWLPCLTYDQIXAFIAALNDDPCQSSEILSEAXELCS; not fully specified; DOTA-PEG4, methyl-Lys, C-terminal amide; SITE 24 monomethyllysine; SITE 45 monomethyllysine) [Compound C467]	>12	>12
